The text below walks through data of paper PMC5913134, “The IL-33-PIN1-IRAK-M axis is critical for type 2 immunity in IL-33-induced allergic airway inflammation” (Nature Communications, 2018).

Where no end group is shown, it is not given here. [ ]: non-standard residue; d: D form. pS = N[C@@H](COP(=O)(O)O)C(=O)O

This experiment deals with T1, 15N-labeled PIN1 WW domain (PIN1 residues 1-50) (UniProt Q13526 1-50).
T1 construct: PIN1 residues 1-50 (WW domain); The methods describe a pET28 His6-TEV construct for PIN1; also called 15N-PIN1-WW; source: expressed and purified, 15N-labeled
Briefly: NMR titration; 1H-15N HSQC of 15N-PIN1-WW at constant concentration, peptide serially diluted (reverse titration), 25 °C, 600 MHz; fit to a simple bimolecular model; apparent. The settings on record: both partners purified.

T1 sequence (Q13526 1-50): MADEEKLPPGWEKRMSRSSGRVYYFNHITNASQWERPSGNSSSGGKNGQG

B1: IRAK-M-pS110 peptide (IRAK-M residues 103-124 with Ser110 phosphorylated) (peptide)
peptide: TNYGAVL[pS]PSEKSYQEGGFPNI
notes: IRAK-M (IRAK3) residues 103-124; also called IRAK-M phosphopeptide; pIRAK-M-pS110; source: synthetic peptide (Tufts University Core Facility)
B1: the Kd is 60.7 µM.
